Assay results reported in the DeepSol protein solubility set.

Assay: soluble on expression in E. coli; label from the status in PepcDB or PDB records

Question: Which “soluble on expression in E. coli” value does the source give for “MAHHHHHHMAATKLGINGFGRIGRLVFRAAFGRKDIEVVAINDPFMDLNHLCYLLKYDSVHGQFPCEVTHADGFLLIGEKKVSVFAEKDPSQIPWGKCQVDVVCESTGVFLTKELASSHLKGGAKKVIMSAPPKDDTPIYVMGINHHQYDTKQLIVSNASCTTNCLAPLAKVINDRFGIVEGLMTTVHASTANQLVVDGPSKGGKDWRAGRCALSNIIPASTGAAKAVGKVLPELNGKLTGVAFRVPIGTVSVVDLVCRLQKPAKYEEVALEIKKAAEGPLKGILGYTEDEVVSQDFVHDNRSSIFDMKAGLALNDNFFKLVSWYDNEWGYSNRVLDLAVHITTS” here?
Answer: soluble

Question: For “VDEPESMVNLAFVKNDSYEKGPDSVVVHVYVKEICRDTSRVLFREQDFTLIFQTRDGNFLRLHPGCGPHTTFRWQVKLRNLIEPEQCTFCFTASRIDICLRKRQSQRWGGLEAPAARVGGA”, which “soluble on expression in E. coli” value is on record?
Answer: soluble

Question: Which “soluble on expression in E. coli” value does the source give for “AHHHHHHGSEIKYRPEELTKLPRSVEYREGKVYMINQRLLPREFKVEEFTTVEAVAEAIKNMTVRGAPAIGAAAAFGLALYAETSKAKTKDEFFDGFYRAYETLKNTRPTAVNLFWALNRIKKLVEEHREDSLDEIKRLIVEEAQKIADEDVEANLRMGHYGAEVLPEGNILTHCNAGSLATVHLGTVGAVVRVMHKEGTLKLLWLDETRPVLQGARLSAWEYSYDGLNVKLIADNAAAFVMQQGKVDAIIVGADRIVANGDFANKIGTYMLAVLAKEHGIPFFTVAPLSSIDMSLSSGKEIPIEERSPEEVLTCGGCRIAPDVPVYNPAFDVTPHKYLTGIITDRGVVWPPFKRNLKKLFETL” here?
Answer: soluble

Question: For “MSLIISELRHEHALRDLLRAAGMSRSTWYYNMNALKQGDRYAGLKENIRKIYHYHKGRYGYRRITLALRKQGLRINHKTVQRLMAELSLRSVIRAKKYRAWKGRTGEAAPNILSRNFGASKANEKWVTDVTEFPVQGKKLYLSSVLDLFNREVIAYSLSERPVMEMVNTMLDGAFPKLRPGDAPLLHSDQGWHYRMRSYQERLKAHGMTQSMSRKGNCLDNAVMENFFGTLKSECFYLREFRSVSALRKAVEDYIHYYNNERISLKLKGLSPVEYRTQALRAAEGHHHHHH”, which “soluble on expression in E. coli” value is on record?
Answer: not soluble

Question: With “GKRSERQQADMEMMKDRFAKLLLGEDMSGGGKGVSSALALSNAITNLAASIFGEQTKLQPMPQDRQARWKKEIDWLLSVTDHIVEFVPSQQTSKDGVCTEIMVTRQRGDLLMNIPALRKLDAMLIDTLDNFRGHNEFWYVSRDSEEGQQARNDRTNDKWWLPPVKVPPGGLSEPSRRMLYFQKDSVTQVQKAAMAINAQVLSEMEIPESYIDSLPKNGRASLGDSIYKSITEEWFDPEQFLAMLDMSTEHKVLDLKNRIEASVVIWKRKLHTKDTKSSWGSAVSLEKRELFEERAETILVLLKQKFPGLPQSSLDISKIQFNKDVGQAVLESYSRILESLAYTVMSRIEDVLYTDTLALKQTLLA” as the sequence, how does the “soluble on expression in E. coli” value read?
Answer: soluble

Question: With “DKSNKLQNLVAEQLVGCGFNEILNNSLTRAAYYDGLESYPSKNLVMLLNPLSADLNCMRQTLLFGGLESIAHNANRKNADLKFFEFGNCYHFDAEKKNPEKVLAPYSEDYHLGLWVTGKMVSNSWAHADENTSVYELKAYVENIFKRLGLDLHSLVVGNLSDDIYSTALTVNTKGGKRLATFGVVTKKMLKAFDVDNEVYYADLNWK” as the sequence, how does the “soluble on expression in E. coli” value read?
Answer: not soluble

Question: With “MAGNSNLMIKTLRKISEILKKPPKASSESDVTVRDKACQALGSIKRLIGDTITAFIGPISTETAKIEKINQYQQEAAEEFKKFQETQPKAGGDGGAENSAENLDENQENSPEKAEKPQVLDAWELLEPEDCSKKIDKSVETQLIDKNWKERLAGAENVKKSMENAGRIEISERLTEISKLLMKIVEKDVNVNVGAISAQILAEIAKKSRFSFAPLALRAFPVVFDKLKDKKAILRDALVEFCDEAANTTPLSAYSEAVITALSNKNPQARQQTALFLSRFFAKNDPKTVETEAVKQLAEHILKTSNDADKEVREAALRIVAAVQKCLGEGVAKRLLAEVYDDKLKAEKLPPLIEELEKEFGSSASPEMLRLAKHYKIGASSTSAPPKTTAAGAPKRPSSAVAPRRAPPASAAPTRRAPSPKAPVVAPTRRAPSPKAPVASVAPVKPKPFVARPAPSFGKPRAAVAPARAPQITQRAPAATRPSTSAIRVTPIAPNVVRNGAPTTAQQAPRKPIGIARPQTSSGIAAPGAPRSRIAMPTTSSSSLARRPGSASSSVPRVPTGAASMTSSSRIRPPSRPGSRPGSRNE” as the sequence, how does the “soluble on expression in E. coli” value read?
Answer: not soluble

Question: For “GSHMEDSTTNITKKQKWTVEESEWVKAGVQKYGEGNWAAISKNYPFVNRTAVMIKDRWRTMKRLGMN”, which “soluble on expression in E. coli” value is on record?
Answer: soluble

Question: For “MIQIEQIRTGVIQENCYLVYNEEALLIIDPGAEGAKLIQEITRLGKKPAAILLTHTHYDHIGAVEELRHHYQIPVYVSPLEQAWLSNPILNLSGLGRHDDIANIIVQPAEHEFKLTDYEIGGMKFSVVPTPGHSIGSVSFVFDDFVVVGDALFKGSIGRTDLHTGDMQQLLHSITTYLFTLPEEFPVYPGHGDATTIQHEKATNPFFN”, which “soluble on expression in E. coli” value is on record?
Answer: not soluble

Question: Which “soluble on expression in E. coli” value does the source give for “MGHHHHHHSHMEDLLDLDEELRYSLATSRAKMGRRAQQESAQAENHLNGKNSSLTLTGETSSAKLPRCRQGGWAGDSVKASNGTQTGKQQLDLNACYHKTHHRNLGLASLEEADIPIIPDLEEVQEEDFVLQVAAPPSIQIKRVMTYRDLDNDLMKYSAIQTLDGEIDLKLLTKVLAPEHEVREDDVGWDWDHLFTEVSSEVLTEWDPLQTEKEDPAGQARHT” here?
Answer: soluble

Question: Which “soluble on expression in E. coli” value does the source give for “MNINLSVPYAAEGPGPTINTLGQVDGEDVVSISSADLDETEGNLNMTTVSVRSGMTLSQVISRWLFTDDTIVPIEQVFPPGQSTEEVEESNRTAFISSESSATIAAMNYLNIPVEVEVAEVLTDSAATGIFEPGDKLLSIDGTAISTPGDAQTIVRSKAPGDEITISYERNDAESQATITLREHPDDSSVALLGISMLSVPSSAIEVDYNLEDIGGPSAGMMFSLAVVDKLSPGALNGGKFVAGTGTIAEDGSVGPIGGIAHKVRAAEDAGAEVFLSPADNCAEAMSAKPQDMTILKVDSLSQAIDQMAAYNEGLEHHHHHH” here?
Answer: soluble

Question: For “MAHHHHHHMRPTFPALGSRAKGYENRVMVYAHRRHRAWYLPPKLAHARSPLANKSPDEYGNTWDPRTGVEWYHRLRRRGAYRHWPWARWNDDPVRQHQELSCRRTFSAAVTGANEGVPLWNYYAEVGQEYGLPSHFPLSFMAPFIHQYTSRAWSRKEIERHLKVVEERTGLRTIQQACDATSELLEWGEEEMGVVPHGLLQHVVMLAEDIVLQNKKKAYRKAAHERGILRTTTMERYYALPHLRTGPPMPTTLEQPSGEFPWGKFSTMVGGTRIHPLYRPDGFFKDNMYPA”, which “soluble on expression in E. coli” value is on record?
Answer: not soluble

Question: With “MYEAGTVEWRLTMVYLEQFRFPDAEVEFDFFLRQKRTCYDTYYPFQILSKHRFEQIDFEPVTILYGGNGTGKSTVLNIIAQKLHLLREAPFNQSSFYEDYLELCSFESAAHLPKDSRIITSDDVFDYMLNIRNLNEGIDRKREMLFEEYLDTKFAKFRMKSLDDYEQLKRVNNARRKTQSQFIRSELMDNVREYSNGESAFLYFTEKVTENALFLLDEPENSLSPAKQQELVKFIEDSARFFGCQFVIATHSPFVLAIRGAKIYDLDEEPVDVKRWTELENVRAYYDFFKKHASEF” as the sequence, how does the “soluble on expression in E. coli” value read?
Answer: not soluble

Question: For “MHHHHHHSSGVDLGTENLYFQSMGFETLVVTSEDGITKIMFNRPKKKNAINTEMYHEIMRALKAASKDDSIITVLTGNGDYYSSGNDLTNFTDIPPGGVEEKAKNNAVLLREFVGCFIDFPKPLIAVVNGPAVGISVTLLGLFDAVYASDRATFHTPFSHLGQSPEGCSSYTFPKIMSPAKATEMLIFGKKLTAGEACAQGLVTEVFPDSTFQKEVWTRLKAFAKLPPNALRISKEVIRKREREKLHAVNAEECNVLQGRWLSDECTNAVVNFLSRKSKL”, which “soluble on expression in E. coli” value is on record?
Answer: soluble

Question: Which “soluble on expression in E. coli” value does the source give for “MQINNQSRDVFYVSDGTAITCETLGHVVLGQFPFIPNEKTFPFVESQDKVADVVKEIETSYQRNGVKPLVFFSIVVPGVREMLLEAPAYSYDVLESIVQKVQDDIQMAPAPKLQRSRSVGKDSDTYFDRIAAIEYTLAHDDGITLKGLEQADIILLGVSRSGKTPTSLYMAMQFGLRVVNYPFIAEDVKMMRLLPEFEVHRHKLFGLTITPERLNEIRENRLSGSDYASEEQCKLELDTVEALFRREAIPYINTSSLSVEEISTRILERAGMKRRLFGLEHHHHHH” here?
Answer: soluble

Question: For “MGHHHHHHSHGLPLWVSERILQQINQLTHYEPVIGIMGKTGAGKSSLCNALFAGEVSPVSDVAACTRDPLRFRLQIGEHFMTIVDLPGVGESGVRDTEYAALYREQLPRLDLILWLIKADDRALATDEHFYRQVIGEAYRHKMLFVISQS”, which “soluble on expression in E. coli” value is on record?
Answer: not soluble

Question: For “ALNPNEHQLIKNVFGFIDVTVRQVMTPRTSINAIDIDLPLEYVLNKIVNEGYSRLPVYKDNIDNIIGILYTKDLLKMMNKGEQIKLQSAMRQPYFVPETKKINELLKNLQAKHLHMAIIIDEFGGVSGITTIEDIIEELVGEIQDEHDDEAPVVEQVSA”, which “soluble on expression in E. coli” value is on record?
Answer: not soluble

Question: Which “soluble on expression in E. coli” value does the source give for “MGSDKIHHHHHHMTGSNKVIISCAVTGSIHTPTMTPYLPITSTEIANAATGAIDAGAAIVHLHARHPDDGRPDQTVGAFRPFIEHIKAHTDGIINLTTGGAPTMSVEERLQPALHLKPEIASLNMGSMNFGLFPMLNRYKEFKHEWERHYLEGTRDLVFRNTFKDIEYVLSSCTGNDTRFEFECYDTAHLYNLAHFLDRKLVTPPLFVQTVFGILGGIGSHADDVAHMKRTADRLFGSNYVWSVLGAGRAQMPVASIAAAQGGNVRVGIEDSIWNGPGQLAKANSDQVRRVRQILEGMGLAIATPDEARTLLHLKGRNNVAF” here?
Answer: not soluble

Question: For “MNEIKLKYDTQVSVVHYESLDSRSFKSFSMPKWSKLVNKLSVPIEANYKYARGVAVYGDIKDNTNDHGEIIKKHRNDKNVIYRNVIVLDYDEINDVKQLHDAISSVLSSVAWYWHTSFSHTTEQARIRLYIPLNERISADDYRKYTKVLANKIGHKVDEGSYQPSRCFALPVIQKGHIFIKRVNDCPIMDVDMLEQWSKEYKQSNGSPNIKGYTRRDSAYWRDIAFGVSEGERNSTLASITGYLLRRYVDPNLVYGLVSAWASVCKPPINQSEVNNTFKSILKKDSKNS”, which “soluble on expression in E. coli” value is on record?
Answer: not soluble

Question: For “MRRFDCTVVAIHDDASLGCRLPGANKALRIQLNAVELPAAEPWRRRAREALEDMLLGKSATIREQGRDARFRILGAAWVTPADCPTCGHTLDAGLALLTIGLASWRDAPDSGQTAEARGQYRFAEEEARARKAGQWRP”, which “soluble on expression in E. coli” value is on record?
Answer: soluble

Question: With “MSANVDLNQRPDYDAVLQDIADYVLDYRIDSTEALDTARNCLMDTLGCGLLALRFPECTKHLGPLVEGTLVPHGARVPGTSFRLDPVKAAWDIGCIVRWLDYNDTWLAAEWGHPSDNLGGILAVADHLSQKRLANGEAPLSMRQVLEAMIMAHEIQGVIALENSFNRVGLDHVLLVKVASTAVCAKLMGADREQLLAALSHAFVDGQALRTYRHAPNAGSRKSWAAGDATSRGVRLADIALRGEMGIPGVLSAPQWGFYDVLFSHTSKDLATKPEDKRRFSFPQGYGSYVMENVLFKISFPAEFHAQTAAEAAVRLHPLVKDRLQRISRIVITTHESAIRIISKVGPLANPADRDHCLQYMTAVPLIFGDLVAEHYEDAFHAAHPLIDRLREKMEIVEEPRYSREYLEADKRSIANAVEVFFDDGSSTGQVAVEYPLGHRRRRAEGIPLLQEKFKANLATRFPPQRCQRIFDLCSHQASLEATPVNRFMDLLAI” as the sequence, how does the “soluble on expression in E. coli” value read?
Answer: not soluble

Question: Which “soluble on expression in E. coli” value does the source give for “QYWDLRKTQQTGQCQSREDYYSAFRNEIQQSIRQSIRTDAEIMAHYSGGLDSSSIASIAALQLAKENKTLMAYTAIPKYLSGDSHRKGCKYHELDRVQSACRYYDNIETIVYQSSEDLSIFDKLQVFYPYLDQPFKAVFNMEWILAGLEMAAAKNCRILLNGEQGNGSISWKGVTLGNYLNQRVKFTRHLLKYHMKLGKQFIKSGSLNLKKNRTDLNEMKKNFLEPHYSLLRGKNRLETRSYMRSIYLWFGVEVIDPTSNLDLVQFCYDLPEWVYHGGNKYFEIRRLPKLKRRLLVRDALEGLVPPEIRHNPYRGEQAADWYYQFNKYGHAWGRLLADIAEKHPLIWEIYPKKYLLDLFANHPISPQSRNFQDVNMHLVPALSTAFFINYLNDLY” here?
Answer: not soluble
